Experimental data: the nanobody polyreactivity screen of Harvey et al. (2022)

Test: yeast display, Sf9 membrane polyspecificity reagent, FACS + sequencing; frameworks hold sequencing errors
Method in brief: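 Galactose-induced (36–48 hours) yeast carrying a synthetic nanobody display library were exposed to 10% biotinylated, detergent-solubilized Sf9 membrane reagent at 4 °C for 1 hour. FACS followed streptavidin microbead enrichment, using low and high (top ~1%) gates for expression (anti-HA) and reagent binding (streptavidin). Colony PCR, MiSeq 2 × 250 sequencing and CDR-length filtering followed. Labels for polyreactivity reflect the gate of origin.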
With “QVQLVESGGGLVQAGGSLRLSCAASGSIFEYNGMGWYRQAPGKERELVAAITTTGTTDYADSVKGRFTISRDNAKNTVYLQMNSLKPEDTAVYYCAADYTYYYKGEYDYWGQGTQVTVSS” the “polyreactivity (PSR sort gate)” value was “low polyreactivity”. For “QVQLVESGGGLVQAGGSLRLSCAASGSIFEYYPMGWYRQAPGKERELVAAISWSGGSTYYADSVKGRFSISRDNAKNTVYFQMNSLKPEDTAVYYCAARGYWGQGTQVTVSS”, the “polyreactivity (PSR sort gate)” value was “low polyreactivity”. In the case of “QVQLVESGGGLVQAGGSLRLSCAASGSIFFAYAMGWYRQAPGKERELVAAIRSGVRTNYADSVKGRFTISRDNAKNTVYIQMNSLKPEDTAVYYCNTDLSKFGHRVSLSGYDYWGQGTQVNVSS”, the “polyreactivity (PSR sort gate)” value is reported as “low polyreactivity”. With “QVQLVESGGGLVQAGGSLRLSCAASGSIFFAYDMGWYRQAPGKERELVAAINFDGTSTYYADSVKGRFTISRDNAKNTVYLQMNTLKPEDTAVYYCNKRVSPTYKGQYVYWGQGTQVTVSS” the “polyreactivity (PSR sort gate)” value was “low polyreactivity”. In the case of “QVQLVESGGGLVQAGGSLRLSCAASGSIFFAYVMGWYRQAPGKERELDAVITYSGGSTYYADSVKGRFTISRDNAKNTVYLQMNSLKPEDTAVYDCAADETSALDDYWGQGTQVTVSS”, the “polyreactivity (PSR sort gate)” value is reported as “low polyreactivity”. With “QVQLVESGGGLVQAGGSLRLSCAASGSIFFDYGMGWYRQAPGKERELVATITRGTGSTYYADSVKGRFTISRDNAKNTVYLQMNSLKPEDTAVYYCAAGWHYVYRTPGFGYWGQGTQVTVSS” the “polyreactivity (PSR sort gate)” value was “high polyreactivity”. For “QVQLVESGGGLVQAGGSLRLSCAASGSIFFEYAMGWYRQAPGKERELVAAISRRGGSTYYADSVKGRFTISRDNAKNTVYLQMNSLKPEDTAVYYCNKVNRASRGDYDYWGQGTQVTVSS”, the “polyreactivity (PSR sort gate)” value was “high polyreactivity”. For “QVQLVESGGGLVQAGGSLRLSCAASGSIFFEYAMGWYRQAPGKERELVASINRGGGSTYYADSVKGRFTISRDNAKNTVYLQMNSLIPEDTAVYYCAAQCKYRQSYLDYYWGQGTQVTVSS”, the “polyreactivity (PSR sort gate)” value was “low polyreactivity”. In the case of “QVQLVESGGGLVQAGGSLRLSCAASGSIFFGYGMGWYRQAPGKERELVATITTSGGTYYADSVKGRFTISRDNAKNTVYLQMNSLKPEDTAVYYCNKEDYGLYPYYVSVGYDYWGQGTQVTVSS”, the “polyreactivity (PSR sort gate)” value is reported as “low polyreactivity”. For “QVQLVESGGGLVQAGGSLRLSCAASGSIFFIYAMGWYRQAPGKERELVAAINDGGGSTYYADSVKGRFTISRDNAKNTVYLLMNSLKPEDTAVYYCAAEWSWGPYRYDYWGQGTQVTVSS”, the “polyreactivity (PSR sort gate)” value was “high polyreactivity”. In the case of “QVQLVESGGGLVQAGGSLRLSCAASGSIFFIYAMGWYRQAPGKERELVAAISWSDDSTYYADSVKGRFTISRDNAKNTVYLQMNSLKPEDTAVYYCAARYYIGYGHRTYGYDYWGQGTQVTVSS”, the “polyreactivity (PSR sort gate)” value is reported as “high polyreactivity”. For “QVQLVESGGGLVQAGGSLRLSCAASGSIFFIYAMGWYRQAPGKERELVATITSGGSTYYADSVNGRFTISRDNAKNTVYLQMNSLKPEDTAVYYCAVDEYFAFDYWGQGTQVTVSS”, the “polyreactivity (PSR sort gate)” value was “low polyreactivity”. With “QVQLVESGGGLVQAGGSLRLSCAASGSIFFIYDMGWYRQAPGKERELVADITSGGGSTFYADSVKGRFTISRDNAKNTVYLQMNRLKPEVSAVYYCATDDHDQPGGQLYITEVNYWGQGTQVTVSS” the “polyreactivity (PSR sort gate)” value was “low polyreactivity”. In the case of “QVQLVESGGGLVQAGGSLRLSCAASGSIFFLYAMGWYRQAPGKERELVAAISCSGGRTYYADSVKGRFTISRDNAKNTDYIQMNSLKPEDTAVYYCAASYSGRQDRYPHYDYWGQGTQVTVSS”, the “polyreactivity (PSR sort gate)” value is reported as “low polyreactivity”. For “QVQLVESGGGLVQAGGSLRLSCAASGSIFFNNTKGWYRPAPGKERELVAAINWSGTSTYYADSVKGRFTISRDNAMNTVYLQMNSLKPEDTEVYYCAADVVRSNFDGTFLYDYDYWGLGTQVTVSS”, the “polyreactivity (PSR sort gate)” value was “low polyreactivity”. With “QVQLVESGGGLVQAGGSLRLSCAASGSIFFNTMGWYRQAPGKERELVAAINTSGGRTYYADSVKGRFTISRDNAKNTVYLQMNSLKPEDTAVYYCATTAYSQYYTYYYWGQGTQVTVSS” the “polyreactivity (PSR sort gate)” value was “high polyreactivity”. In the case of “QVQLVESGGGLVQAGGSLRLSCAASGSIFFPNAMGWYRQAPGKERELVAAITSTSTNYADSVKGRCTISRDNAKNTVYLQMNSLKPEDTAVYYCAADGEFRRAWYEGDYWGQGTQVTVSS”, the “polyreactivity (PSR sort gate)” value is reported as “low polyreactivity”. In the case of “QVQLVESGGGLVQAGGSLRLSCAASGSIFFRYAMGWYRQATGKERELVARISWGGGRTYYADSVKGRFTISRDNAKNTVYLQMNSLKPEDTAVYYCNRAYWVNPGGFEYWGQGTQVTVSS”, the “polyreactivity (PSR sort gate)” value is reported as “high polyreactivity”. With “QVQLVESGGGLVQAGGSLRLSCAASGSIFFSNAMGWYRQAPGKERELVAAITSTGGSTYYADSVKGRFTISRDTAKNTVYLQLNSLKPEDTAVYYCAAASRRGYYYWGQGTQVTVSS” the “polyreactivity (PSR sort gate)” value was “high polyreactivity”. In the case of “QVQLVESGGGLVQAGGSLRLSCAASGSIFFSNAMGWYRQAPGKERELVASISRDVSTNYADSVKGRFTISRDNAKNTVYLQMTSLKPEDTAVYYCAKRYYRYYYITYNGSHYGYWGQGTQVTVSS”, the “polyreactivity (PSR sort gate)” value is reported as “low polyreactivity”. In the case of “QVQLVESGGGLVQAGGSLRLSCAASGSIFFTYAMGWYRQAPGKERELVAAISGVVSTYYADSVKGRFTISRDNAKNTVYLQMNSLKPEDTAVYYCAADYSWTGFGWEYDYWGQGTQVNVSS”, the “polyreactivity (PSR sort gate)” value is reported as “low polyreactivity”. In the case of “QVQLVESGGGLVQAGGSLRLSCAASGSIFFVNAMAWYRQAPGKERESVAGITGGGSTYYADSVKGRFTISRDNAKNTVYLQMNSLKPEDTAVYYCNKKAYRKTGMDYWGQGTQVTVSS”, the “polyreactivity (PSR sort gate)” value is reported as “low polyreactivity”. For “QVQLVESGGGLVQAGGSLRLSCAASGSIFFVYAMGWYRQAPGKERELVAGIRWSGGRTSYADSVKGRFTISRDNAKNTVYLQMNSLNPEDTAVYYCAADPRSYFTSEYWGQGTQVTVSS”, the “polyreactivity (PSR sort gate)” value was “high polyreactivity”. In the case of “QVQLVESGGGLVQAGGSLRLSCAASGSIFFVYAMGWYTQAPGKERELVAGIRWSGGRTSYADSVKGRFTISRDNAKNTVYLQMNSLNQEDTAVYYCAAGCGVLPQQHYYYRYDYWGQGTQVTVSS”, the “polyreactivity (PSR sort gate)” value is reported as “high polyreactivity”. With “QVQLVESGGGLVQAGGSLRLSCAASGSIFFWNDMGWYRQAPGKERELVAAISWSGGSTSYADSVKGRFTISRDNAKNTVYLQMNSLKPEDTAVYYCAAEYTYGSPYDYWGQGTQVTVSS” the “polyreactivity (PSR sort gate)” value was “low polyreactivity”. In the case of “QVQLVESGGGLVQAGGSLRLSCAASGSIFFYAMGWYRQAPGKERELVADITYTGGSKYADSVKGRFSISRDNAKNTVYLQMNSLKTEDTAVYYCAKLDGGLFDYWGQGTQVTVSS”, the “polyreactivity (PSR sort gate)” value is reported as “low polyreactivity”. For “QVQLVESGGGLVQAGGSLRLSCAASGSIFFYNTMGWYRQAPGKERELVAAISASGGRTYYADSVKGRFTISRDYSKNTVYLQMNSLKPEDTAVYYCAVRVPYRGYTRYDYWGHGTQVTVSS”, the “polyreactivity (PSR sort gate)” value was “high polyreactivity”. For “QVQLVESGGGLVQAGGSLRLSCAASGSIFFYYAMGWYRQAPGKERELVATITSGGSTSYADSVKGRFTISRDNAKNTVFLQMNSLKPEDTAVYYCAARKVTKSTYNYWGQGTQVTVSS”, the “polyreactivity (PSR sort gate)” value was “low polyreactivity”. In the case of “QVQLVESGGGLVQAGGSLRLSCAASGSIFFYYAMGWYSQAPGTERELVAAIRNGGSTKYADSVKGRFTISRDNAKNTVYLQMNSLKPEDTAVYYCAAGYPVTRRTIRFDYWGQGTQVTVSS”, the “polyreactivity (PSR sort gate)” value is reported as “high polyreactivity”. For “QVQLVESGGGLVQAGGSLRLSCAASGSIFGAYAMGWSRQAPGKERELVAAISGSGTSTYYADSVKGRFTISRDNAKNTVYLQMNSLKQEDTAVYYCAADGTYFYIYLGDRFDYWGQGTQVTVSS”, the “polyreactivity (PSR sort gate)” value was “low polyreactivity”. In the case of “QVQLVESGGGLVQAGGSLRLSCAASGSIFGAYAMGWYRQAPGKERELVAAISRSGSTTYYADSVKGRFTISRDNAKNTVYLQMNSLKPEDTAVYYCAARWTRFLSSSDYYYWGQGTQVTVSS”, the “polyreactivity (PSR sort gate)” value is reported as “high polyreactivity”. For “QVQLVESGGGLVQAGGSLRLSCAASGSIFGAYAMGWYRQAPGKERELVATITLRDGSTYYADSVKGRFTISRDNAKNTVYLQMNSLKPEDTAVSYCATYYSAINYGWSKTILYDYWGQGTQVTVSS”, the “polyreactivity (PSR sort gate)” value was “low polyreactivity”. For “QVQLVESGGGLVQAGGSLRLSCAASGSIFGDNAMGWSRQAPGKERDLVAAISSGGPTYADSVKGRFTISRDYAKNTVYLLMNSLKPEDTAVYYCNATDGMTPYDLTDIEFDYWGQGTHVTVSS”, the “polyreactivity (PSR sort gate)” value was “low polyreactivity”. For “QVQLVESGGGLVQAGGSLRLSCAASGSIFGDNAMGWYRQAPGKERELVAAISSSGGSTYADSVKGRFTISRDNAKNTVYLQMNSLKPEDTAVYYCATQIAWGTYVINPQMDYWGQGTQVTVSS”, the “polyreactivity (PSR sort gate)” value was “low polyreactivity”. In the case of “QVQLVESGGGLVQAGGSLRLSCAASGSIFGDNAMGWYRQAPGKERELVAAISTRGGRTYYADSVKGRFTISRDNAKNTVYLQMNSLKPEDSAVYYCATSGGRPYKYEYWGQGTQVTVSS”, the “polyreactivity (PSR sort gate)” value is reported as “high polyreactivity”. With “QVQLVESGGGLVQAGGSLRLSCAASGSIFGDNAMGWYRQAPGKERELVATISSSDASTYYADSVKGRFTISRDNAKKTVYLQMNSLKPEDTAVYYCAAARSGGYDYWGQGTQVTVSS” the “polyreactivity (PSR sort gate)” value was “low polyreactivity”. With “QVQLVESGGGLVQAGGSLRLSCAASGSIFGDYDMGWYRQAPGKERELVAAINRGGSTYYADSVKGRFTMSRDNAKNTVYLQMISLKPEDTAVYYCAAGYPSWYYGYAYDSWGQGTQVTVSS” the “polyreactivity (PSR sort gate)” value was “low polyreactivity”. For “QVQLVESGGGLVQAGGSLRLSCAASGSIFGEYAMGWYRQAPGKERELVADITTGGNTNYADSVKGRFTISRDNAKNTVYLQMNSLKPEDSAVYYCYAFGNTYGYWWFGYWGQGTQVTVSS”, the “polyreactivity (PSR sort gate)” value was “low polyreactivity”. In the case of “QVQLVESGGGLVQAGGSLRLSCAASGSIFGFNAMGWYRQAPGKERELVAAINNGGSTNYADSVKGRFTISRDNAKNTVYLQMNSLKPEDTAVYYCAVGTLTYEGFRTYYYWGQGTQVTVSS”, the “polyreactivity (PSR sort gate)” value is reported as “high polyreactivity”. In the case of “QVQLVESGGGLVQAGGSLRLSCAASGSIFGFYAMGWYRQAPGKERELVAAITRSGDSTYADSVKGRFTISRDNAKNTVYLQMNSLKPEDTAVYYCATYWQYRYDYWGQGTQVTVSS”, the “polyreactivity (PSR sort gate)” value is reported as “low polyreactivity”. In the case of “QVQLVESGGGLVQAGGSLRLSCAASGSIFGFYAMGWYRQAPGKEREMVAAITRSGDSTYADSVKGRFTISRDNAKNTVYLQMNSLKPEDTAVYYCADDIDRSDVNSESYDYDYWGQGTQVTVSS”, the “polyreactivity (PSR sort gate)” value is reported as “low polyreactivity”. For “QVQLVESGGGLVQAGGSLRLSCAASGSIFGFYDMGWYRQAPGKERELVAAITTGGSTYYADSVKGRFTISRDNAKNTVYLQMNSLKPEDTAVYYCAKERWFPYERNDYWGQGTQVTVSA”, the “polyreactivity (PSR sort gate)” value was “low polyreactivity”. In the case of “QVQLVESGGGLVQAGGSLRLSCAASGSIFGGNAMGWYRPAPGKERELVAGISTSGGSTYYADSVKGRFTISRDNAKNTVYLQMNSLKPEDTAVYYCARGLGTYPQYWWFGTPGLDYWGQGTQVTVSS”, the “polyreactivity (PSR sort gate)” value is reported as “low polyreactivity”.
